According to the Human Domainome abundance scans (Beltran et al. 2025):
± gives the uncertainty stated by the source.

B1: Histone-lysine N-methyltransferase SETD2, residues 2382 to 2430; numbered along this chain, Q9BYW2 (parent)
chain: SPPKPKTIVLPPNWKTARDPEGKIYYYHVITRQTQWDPPTWESPGDDAS

Variants of: B1
Test: abundance fitness (aPCA) (normalised: wild type 0, dead -1); higher = more abundant; growth selection in yeast, the domain comes from the species named
Conditions: Homo sapiens

Abundance fitness, by site and new letter:
T16: R -0.052 ± 0.045 | K -0.059 ± 0.092
V9: F 0.049 ± 0.086 | I 0.132 ± 0.075 | D 0.486 ± 0.089 | T 0.123 ± 0.033 | R 0.025 ± 0.044 | A -0.187 ± 0.045 | E -0.255 ± 0.09 | H -0.068 ± 0.095 | L -0.075 ± 0.046 | W -0.24 ± 0.07 | Y -0.362 ± 0.14 | S -0.093 ± 0.056 | Q -0.097 ± 0.054 | N 0.21 ± 0.11 | P -0.538 ± 0.15 | M 0.228 ± 0.08 | G -0.167 ± 0.037 | C 0.084 ± 0.09 | K 0.022 ± 0.042
S1: A -0.597 ± 0.25 | V -0.252 ± 0.14 | E -0.534 ± 0.32 | Y -0.521 ± 0.28 | N 0.442 ± 0.15 | C 0.007 ± 0.08 | F 0.246 ± 0.088
P3: Y 0.335 ± 0.051 | K 0.325 ± 0.034 | H 0.126 ± 0.12 | I 0.115 ± 0.17 | R 0.274 ± 0.054 | V 0.444 ± 0.066 | M 0.369 ± 0.1 | N 0.585 ± 0.097 | C -0.508 ± 0.33 | T 0.155 ± 0.075 | E 0.408 ± 0.082 | A -0.191 ± 0.076 | F 0.197 ± 0.12 | D 0.371 ± 0.12 | G 0.129 ± 0.055 | L 0.105 ± 0.068 | S 0.281 ± 0.049 | Q 0.262 ± 0.04 | W 0.064 ± 0.068
K6: F -0.121 ± 0.05 | A -0.032 ± 0.05 | D -0.074 ± 0.14 | G 0.037 ± 0.053 | R -0.046 ± 0.032 | Y -0.227 ± 0.1 | I -0.037 ± 0.077 | Q 0.07 ± 0.034 | P -0.35 ± 0.1 | E -0.19 ± 0.062 | W -0.393 ± 0.097 | C -0.303 ± 0.091 | L -0.339 ± 0.041 | M 0.018 ± 0.048 | T -0.148 ± 0.073 | S 0.103 ± 0.059 | N 0.018 ± 0.085
P12: Q -0.238 ± 0.09 | T 0.092 ± 0.062 | A 0.153 ± 0.048 | D -0.013 ± 0.076 | F -0.402 ± 0.13 | S -0.195 ± 0.08 | W -0.309 ± 0.062 | G -0.398 ± 0.039 | K 0.048 ± 0.073 | H -0.528 ± 0.21 | C -0.844 ± 0.23 | M -0.007 ± 0.036 | I -0.451 ± 0.16 | R 0.009 ± 0.045 | E 0.105 ± 0.084
A17: W -0.77 ± 0.13 | T -0.217 ± 0.074 | N 0.038 ± 0.14 | H -0.728 ± 0.41 | E -0.301 ± 0.061 | K -0.131 ± 0.1 | V -0.242 ± 0.045 | Q -0.845 ± 0.28 | I -0.184 ± 0.05 | F -0.543 ± 0.15 | M -0.024 ± 0.08 | G -0.022 ± 0.034 | L -0.212 ± 0.066 | P -0.747 ± 0.042 | S -0.155 ± 0.058 | C -0.146 ± 0.078 | R 0.023 ± 0.036 | D -0.092 ± 0.054 | Y -0.128 ± 0.07
P2: L 0.317 ± 0.065 | N 0.461 ± 0.098 | G 0.045 ± 0.035 | I 0.712 ± 0.1 | H 0.314 ± 0.17 | E -0.224 ± 0.082 | T 0.178 ± 0.034 | R -0.118 ± 0.062 | Q -0.007 ± 0.033 | K -0.087 ± 0.054 | S 0.237 ± 0.058 | M 0.026 ± 0.1 | A 0.131 ± 0.068 | F 0.031 ± 0.14 | Y 0.539 ± 0.1 | V -0.065 ± 0.051 | W -0.293 ± 0.094
N13: C -0.292 ± 0.056 | E -0.61 ± 0.15 | F 0.127 ± 0.082 | T -0.123 ± 0.078 | A -0.581 ± 0.067 | S -0.362 ± 0.078 | L -0.039 ± 0.049 | D -0.059 ± 0.075 | Q -0.148 ± 0.13 | G -0.191 ± 0.055 | W -0.144 ± 0.097 | P -0.692 ± 0.084 | M 0.064 ± 0.094 | V -0.523 ± 0.075 | Y 0.107 ± 0.075 | H -0.052 ± 0.039
K15: R 0.11 ± 0.39 | H -0.153 ± 0.41 | Q -0.291 ± 0.26
W14: E -0.868 ± 0.078 | P -1.03 ± 0.32 | S -0.925 ± 0.1 | H -0.615 ± 0.22 | T -0.935 ± 0.19 | C -1.02 ± 0.3 | G -0.855 ± 0.086 | A -0.865 ± 0.054 | M -0.721 ± 0.2 | L -0.925 ± 0.06 | V -0.882 ± 0.097 | Y -0.566 ± 0.42 | Q -0.763 ± 0.24 | D -0.74 ± 0.36
P5: H -0.17 ± 0.13 | A 0.102 ± 0.058 | D 0.133 ± 0.082 | W -0.63 ± 0.12 | M 0.199 ± 0.065 | Q 0.007 ± 0.085 | K 0.159 ± 0.092 | R -0.006 ± 0.035 | T 0.211 ± 0.045 | G 0.118 ± 0.033 | E 0.057 ± 0.035 | F 0.133 ± 0.078 | I 0.077 ± 0.035 | Y -0.066 ± 0.098 | S 0.163 ± 0.044 | V 0.162 ± 0.034 | L 0.125 ± 0.034 | C -0.396 ± 0.079 | N 0.294 ± 0.046
